US20260158151A1

Target: RAS (endogenous RAS of human pancreatic PANC-1 cells and PANC-1 xenograft tumours, detected with a pan-RAS antibody)
Assay: cell-based or functional assay

## RRSP protein expressed in cells from rrsp mRNA delivered by PPDP2 nanoparticles (from UniProt A0A2S3R7M0 3596-4089) (enzyme)
  cell proliferation measured by crystal violet staining, PANC-1 cells, 1.25 µg PPDP2-rrsp: > 60 % reduction
  total levels of intact RAS, western blot with pan-RAS antibody, PANC-1 cells treated with PPDP2-rrsp: 40 % reduction
